From US20230011916A1 (BEIGENE, published 2023)

T1: full-length human OX40 expressed on HuT78 cells (HuT78/OX40) (human, UniProt P43489 29-277)
T1 sequence: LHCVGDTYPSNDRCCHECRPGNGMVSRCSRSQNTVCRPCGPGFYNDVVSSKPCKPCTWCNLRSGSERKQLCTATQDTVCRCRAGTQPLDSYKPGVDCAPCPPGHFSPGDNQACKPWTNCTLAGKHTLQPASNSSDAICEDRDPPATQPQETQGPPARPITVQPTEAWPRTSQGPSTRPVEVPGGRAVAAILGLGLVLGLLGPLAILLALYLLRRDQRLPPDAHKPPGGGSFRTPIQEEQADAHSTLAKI

T2: recombinant OX40 protein with a His tag (Cat: 10481-H08H, Sino Biological) (UniProt P43489 29-216)
T2 construct: Bought protein; also called OX40-His (bought); not shown: His tag
T2 sequence (looked up): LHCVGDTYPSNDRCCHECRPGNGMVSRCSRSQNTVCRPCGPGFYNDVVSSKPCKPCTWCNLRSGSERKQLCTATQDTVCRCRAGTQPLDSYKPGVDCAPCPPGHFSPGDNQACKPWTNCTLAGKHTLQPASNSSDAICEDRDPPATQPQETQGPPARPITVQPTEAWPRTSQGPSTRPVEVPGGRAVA

T3: human OX40/IgG1 fusion H153A (human, UniProt P43489 29-216)
T3 construct: not shown: Fc domain of human IgG1 wild type heavy chain
T3 chain: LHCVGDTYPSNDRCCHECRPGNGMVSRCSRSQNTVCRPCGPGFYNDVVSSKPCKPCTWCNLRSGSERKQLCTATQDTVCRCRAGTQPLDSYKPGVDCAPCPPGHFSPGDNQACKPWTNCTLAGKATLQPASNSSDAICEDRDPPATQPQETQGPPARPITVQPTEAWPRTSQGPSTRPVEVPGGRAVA


Key:
[1] = biological target: T1, full-length human OX40 expressed on …; assay: FACS; cells not named on the sheet, HuT78/OX40 cells as in Example 5
[2] = biological target: T2, recombinant OX40 protein with a His tag …; assay: SPR, BIAcore T-200; antibody captured by anti-human IgG, OX40-His flowed; Test 1
From the text: (§1) The anti-OX40 antibodies were characterized for their binding kinetics and affinity by SPR assays using BIAcore™ T-200 (GE Life Sciences). Briefly, anti-human IgG antibody was immobilized on an activated CM5 biosensorchip (Cat: BR100530, GE Life Sciences). An antibody with human IgG Fc region was flowed over the chip surface and captured by anti-human IgG antibody. Then a serial dilution of recombinant OX40 protein with a His tag (Cat: 10481-H08H, Sino Biological) was flowed over the chip surface and changes in surface plasmon resonance signals were analyzed to calculate the association rates (ka) and dissociation rates (kd) by using the one-to-one Langmuir binding model (BIA Evaluation Software, GE Life Sciences). The equilibrium dissociation constant (KD) was calculated as the ratio kd/ka.

[3] = biological target: T2, recombinant OX40 protein with a His tag …; assay: SPR, BIAcore T-200; antibody captured by anti-human IgG, OX40-His flowed; Mean
From the text: as §1

[4] = biological target: T2, recombinant OX40 protein with a His tag …; assay: SPR, BIAcore T-200; antibody captured by anti-human IgG, OX40-His flowed; Test 2
From the text: as §1

[5] = biological target: T1, full-length human OX40 expressed on …; assay: flow cytometry on live HuT78/OX40 cells; Test 1
Description: (§2) To evaluate the binding activity of anti-OX40 antibodies to bind OX40 expressed on the surface of live cells, HuT78 cells were transfected with human OX40 as described in Example 1 to create an OX40 expressing line. Live HuT78/OX40 cells were seeded in 96-well plate and were incubated with a serial dilution of various anti-OX40 antibodies. Goat anti-Human IgG-FITC (Cat: A0556, Beyotime) was used as a secondary antibody to detect antibody binding to the cell surface. EC₅₀ values for dose-dependent binding to human OX40 were determined by fitting the dose-response data to the four-parameter logistic model with GraphPad Prism.

[6] = biological target: T1, full-length human OX40 expressed on …; assay: flow cytometry on live HuT78/OX40 cells; Test 2
Description: as §2

[7] = biological target: T1, full-length human OX40 expressed on …; assay: flow cytometry on live HuT78/OX40 cells; Mean
Description: as §2

[8] = biological target: T3, human OX40/IgG1 fusion H153A; assay: SPR, BIAcore 8K, OX40/IgG1 mutant immobilized, 445-3 Fab flowed
Description: Briefly, OX40 mutants and wild type OX40 were immobilized on a CM5 biosensor chip (Cat: BR100530, GE Life Sciences) using EDC and NHS. […] The changes in surface plasmon resonance signals were analyzed to calculate the association rates (ka) and dissociation rates (kd) by using the one-to-one Langmuir binding model (BIA Evaluation Software, GE Life Sciences). The equilibrium dissociation constant (KD) was calculated as the ratio kd/ka. The KD shift fold of mutant was calculated as the ratio Mutant KD/WT KD.

[9] = biological target: T1, full-length human OX40 expressed on …; assay: FACS; against 445-2
[10] = biological target: T2, recombinant OX40 protein with a His tag …; assay: Biacore (SPR); antigen not named on the sheet, OX40-His as in Example 4
[11] = biological target: T1, full-length human OX40 expressed on …; assay: flow cytometry on HuT78/OX40 cells
Description: (§3) Goat anti-Human IgG-FITC (Cat: A0556, Beyotime) was used as a secondary antibody for detection. EC₅₀ values for dose-dependent binding to human and cynomolgus monkey native OX40s were determined by fitting the dose-response data to the four-parameter logistic model with GraphPad Prism.

[12] = biological target: T4, cynomolgus OX40 expressed on HuT78 cells (HuT78/cynoOX40) (cynomolgus monkey); assay: flow cytometry on HuT78/cynoOX40 cells
T4 construct: whole, on cells; also called cynomolgus monkey OX40
Description: as §3

[13] = biological target: T1, full-length human OX40 expressed on …; assay: FACS; cells not named on the sheet, HuT78/OX40 cells as in Example 5; remark: listed apart in the source
[14] = biological target: T2, recombinant OX40 protein with a His tag …; assay: Biacore; against 445-2

Binder	EC50 [1]	Top(MFI) [1]	Ka [2]	Kd [2]	koff [2]	kon [2]	Ka [3]	Kd [3]	Ka [4]	Kd [4]	koff [4]	kon [4]	EC50 [5]	EC50 [6]	EC50 [7]	Top(MFI) [7]	Kd [10]	koff [10]	kon [10]	also measured
445-2 (antibody, V domains shown) VH: QVQLVQSGAEVKKPGSSVKVSCKASGYKFTSYIIHWVRQAPGQGLEWMGYINPYNEGTRYAQKFQGRVTLTADKSTSTAYMELSSLRSEDTAVYYCARGYYGSSYAMDYWGQGTTVTVSS VL: DIQMTQSPSSLSASVGDRVTITCSASQGISNYLNWYQQKPGKAIKLLIYDASTLYSGVPSRFSGSGSGTDFTLTISSLQPEDFATYYCQQYSKLPYTFGGGTKVEIK	0.397 µg/mL	760 MFI	7.1e+07 M⁻¹	14.2 nM	0.0039 s⁻¹	276000 M⁻¹ s⁻¹	7.5e+07 M⁻¹	13.5 nM	7.8e+07 M⁻¹	12.8 nM	0.00264 s⁻¹	206000 M⁻¹ s⁻¹	0.323 µg/mL	0.363 µg/mL	0.343 µg/mL	620 MFI				
445-3 Fab (Fab, V domains shown) VH: QVQLVQSGAEVKKPGSSVKVSCKASGYKFTSYIIHWVRQAPGQGLEWMGYINPYNEGTRYNQKFQGRVTLTADKSTSTAYMELSSLRSEDTAVYYCARGYYGSSYAMDYWGQGTTVTVSS VL: DIQMTQSPSSLSASVGDRVTITCRASQGISNYLNWYQQKPDGAIKLLIYDASTLYSGVPSRFSGSGSGTDFTLTISSLQPEDFATYYCQQYSKLPYTFGGGTKVEIK																				binding result [8]: no binding
445-2 with K28T in the heavy chain and S24R in the light chain (antibody, human IgG1, V domains shown) VH: QVQLVQSGAEVKKPGSSVKVSCKASGYTFTSYIIHWVRQAPGQGLEWMGYINPYNEGTRYAQKFQGRVTLTADKSTSTAYMELSSLRSEDTAVYYCARGYYGSSYAMDYWGQGTTVTVSS VL: DIQMTQSPSSLSASVGDRVTITCRASQGISNYLNWYQQKPGKAIKLLIYDASTLYSGVPSRFSGSGSGTDFTLTISSLQPEDFATYYCQQYSKLPYTFGGGTKVEIK	0.66 µg/mL	750 MFI															12.9 nM	0.00574 s⁻¹	444000 M⁻¹ s⁻¹	fold increase to the EC50 over 445-2 [9]: 1.7 fold
445-3 (antibody, V domains shown) VH: QVQLVQSGAEVKKPGSSVKVSCKASGYKFTSYIIHWVRQAPGQGLEWMGYINPYNEGTRYNQKFQGRVTLTADKSTSTAYMELSSLRSEDTAVYYCARGYYGSSYAMDYWGQGTTVTVSS VL: DIQMTQSPSSLSASVGDRVTITCRASQGISNYLNWYQQKPDGAIKLLIYDASTLYSGVPSRFSGSGSGTDFTLTISSLQPEDFATYYCQQYSKLPYTFGGGTKVEIK	0.462 µg/mL	990 MFI	1.09e+08 M⁻¹	9.16 nM			1.06e+08 M⁻¹	9.47 nM	1.03e+08 M⁻¹	9.77 nM			0.337 µg/mL	0.319 µg/mL	0.328 µg/mL	910 MFI	8.51 nM			EC50 [11]: 0.174 µg/mL; EC50 [12]: 0.171 µg/mL
445-1 (antibody, V domains shown) VH: QVQLVQSGAEVKKPGSSVKVSCKASGYKFTSYIIHWVRQAPGQGLEWMGYINPYNDGTRYNQKFQGRVTLTSDKSTSTAYMELSSLRSEDTAVYYCARGYYGSSYAMDYWGQGTTVTVSS VL: DIQMTQSPSSLSASVGDRVTITCSASQGISNYLNWYQQKPGKAIKLLIYDTSTLYSGVPSRFSGSGSGTDYTLTISSLQPEDFATYYCQQYSKLPYTFGGGTKVEIK			5.6e+07 M⁻¹	17.8 nM	0.00277 s⁻¹	156000 M⁻¹ s⁻¹	5.9e+07 M⁻¹	17.1 nM	6.1e+07 M⁻¹	16.4 nM	0.00389 s⁻¹	237000 M⁻¹ s⁻¹	0.293 µg/mL	0.278 µg/mL	0.285 µg/mL	525 MFI				EC50 [13]: 0.336 µg/mL; Top(MFI) [13]: 500 MFI
445-2 with Y27G in the heavy chain and S24R in the light chain (antibody, human IgG1, V domains shown) VH: QVQLVQSGAEVKKPGSSVKVSCKASGGKFTSYIIHWVRQAPGQGLEWMGYINPYNEGTRYAQKFQGRVTLTADKSTSTAYMELSSLRSEDTAVYYCARGYYGSSYAMDYWGQGTTVTVSS VL: DIQMTQSPSSLSASVGDRVTITCRASQGISNYLNWYQQKPGKAIKLLIYDASTLYSGVPSRFSGSGSGTDFTLTISSLQPEDFATYYCQQYSKLPYTFGGGTKVEIK	0.755 µg/mL	630 MFI															21.5 nM	0.00135 s⁻¹	62500 M⁻¹ s⁻¹	fold increase to the KD over 445-2 [14]: 1.7 fold
